Source: article PMC13399220

How the values were obtained:
[1] = target: C-terminal domain of HIV-1 integrase (HIV-1) (UniProt P12497); assay: BLI; IN CTD construct (5 uM, acetate buffer pH 5) amine-coupled (EDC/NHS) to carboxyl biosensors, Imp7 in solution at 1-40 000 nM; steady-state analysis; 25 °C; GatorPrime
[2] = target: IN CTD mutant (RRKAK to RAAAK) (HIV-1) (UniProt P12497); assay: as above

Substance: Xenopus laevis importin 7 (natural protein)
- Kd [1]: 17.9 nM
- stoichiometry N [1]: 1
- Kd [2]: 299 nM
